Source: patent US20150344570A1 (published 2015)

T1: FcgRIIa H (human, UniProt P12318 34-217)
T1 construct: extracellular domain; also called FcγRIIa H; FcγRIIa type H
T1 sequence (looked up): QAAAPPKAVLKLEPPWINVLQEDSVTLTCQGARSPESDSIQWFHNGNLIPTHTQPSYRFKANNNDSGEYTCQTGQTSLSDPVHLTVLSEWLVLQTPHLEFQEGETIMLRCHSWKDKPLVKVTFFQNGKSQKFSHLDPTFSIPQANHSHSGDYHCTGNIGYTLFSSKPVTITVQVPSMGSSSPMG

T2: FcgRIIb (human, UniProt P31994 43-217)
T2 construct: extracellular domain; also called FcγRIIb; CD32B
T2 sequence (looked up): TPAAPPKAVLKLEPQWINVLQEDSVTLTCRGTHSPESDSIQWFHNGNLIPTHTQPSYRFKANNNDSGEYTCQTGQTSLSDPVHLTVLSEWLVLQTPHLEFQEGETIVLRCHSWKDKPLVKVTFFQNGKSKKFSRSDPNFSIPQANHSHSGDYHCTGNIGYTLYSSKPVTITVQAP

T3: FcgRIIa R (human, UniProt P12318 34-217)
T3 construct: extracellular domain; also called FcγRIIa R; FcγRIIa type R
T3 sequence (looked up): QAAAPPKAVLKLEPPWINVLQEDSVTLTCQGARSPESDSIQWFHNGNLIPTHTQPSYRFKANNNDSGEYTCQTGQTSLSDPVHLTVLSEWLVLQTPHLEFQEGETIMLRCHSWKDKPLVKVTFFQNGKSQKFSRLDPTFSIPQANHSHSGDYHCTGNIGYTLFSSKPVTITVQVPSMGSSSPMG


How the values were obtained:
Test in all cases: SPR (Biacore), antibody captured, FcgR as analyte
FcgRIa = target: T4, FcgRIa (human, UniProt P12314 16-292)
T4 construct: extracellular domain; also called FcγRIa; FcγRI
T4 sequence (P12314 16-292): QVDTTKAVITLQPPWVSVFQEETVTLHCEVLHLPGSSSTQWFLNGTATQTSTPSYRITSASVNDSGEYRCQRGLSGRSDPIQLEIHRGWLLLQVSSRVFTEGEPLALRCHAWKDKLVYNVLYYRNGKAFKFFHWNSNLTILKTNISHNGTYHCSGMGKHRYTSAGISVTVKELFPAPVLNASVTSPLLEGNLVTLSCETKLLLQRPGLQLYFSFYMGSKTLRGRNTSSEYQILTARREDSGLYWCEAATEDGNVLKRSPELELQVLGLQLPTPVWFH
Description: (§1) H240-Kn113 (SEQ ID NO: 92) resulting from introduction of Y234E and Y235N into H240-Kn072, H240-Kn115 (SEQ ID NO: 93) resulting from introduction of S239M into H240-Kn072, and H240-Kn125 (SEQ ID NO: 94) resulting from introduction of Y235Q and S239M into H240-Kn072 were prepared according to the method described in Reference Example 1. H240-Kn113/H240-Hl076/L73-k0, H240-Kn115/H240-Hl076/L73-k0, and H240-Kn125/H240-Hl076/L73-k0 were prepared by combining H240-Hl076 as an H chain, L73-k0 as the L chain, and H240-Kn113, H240-Kn115, and H240-Kn125 as the other H chain according to the method described in Reference Example 1.
(§2) Analysis of interaction between objective antibody and the FcγR was carried out using Biacore T100 (GE Healthcare), Biacore T200, Biacore A100, and Biacore 4000. HBS-EP+ (GE Healthcare) was used as the running buffer, and the measurement temperature was set to 25° C. Chips produced by immobilizing the antigen peptide by the amine coupling method to a Series S sensor Chip CM5 (GE Healthcare), chips produced by allowing preliminarily biotinylated antigen peptides to interact with and immobilize onto a Series S Sensor Chip SA (certified) (GE Healthcare), chips produced by immobilizing Protein L (ACTIGEN, BioVision) to Series S Sencor Chip CM5 (GE Healthcare), or chips produced by immobilizing Protein A/G (Thermo Scientific) to Series S Sencor Chip CM5 (GE Healthcare) were used. Antibodies of interest were captured onto these chips, and allowed to interact to each FcγR diluted with running buffer. To regenerate and repeatedly use the chip, the antibodies captured onto the chip were washed off by reacting 10 mM glycine-HCl, pH 1.5.

FcgRIIa H = target: T1, FcgRIIa H
Description: as §1, §2

FcgRIIb = target: T2, FcgRIIb
Description: as §1, §2

FcgRIIIa V = target: T5, FcgRIIIa V (human, UniProt P08637 17-208)
T5 construct: extracellular domain; polymorphic site made after J. Clin. Invest; also called FcγRIIIa V
T5 sequence (P08637 17-208 F176V limits assumed): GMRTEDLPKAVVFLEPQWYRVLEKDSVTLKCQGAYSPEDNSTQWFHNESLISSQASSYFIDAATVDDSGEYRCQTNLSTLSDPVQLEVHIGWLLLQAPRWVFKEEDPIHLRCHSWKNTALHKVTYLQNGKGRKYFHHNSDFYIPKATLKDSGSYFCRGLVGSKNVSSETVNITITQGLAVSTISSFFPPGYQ
Description: as §1, §2

FcgRIIIa F = target: T6, FcgRIIIa F (human, UniProt P08637 17-208)
T6 construct: extracellular domain; polymorphic site made after J. Clin. Invest; also called FcγRIIIa F
T6 sequence (P08637 17-208): as the sequence (P08637 17-208 F176V limits assumed) above, with V160F counted along it
Description: as §1, §2

FcgRIIa R = target: T3, FcgRIIa R
Description: as §1, §2

Kd (FcgRIa) [nM]	Kd (FcgRIIa H) [nM]	Kd (FcgRIIb) [nM]	Kd (FcgRIIIa V) [nM]	Kd (FcgRIIIa F) [nM]	Kd (FcgRIIa R) [nM]	Binder
0.21	350	5000	0.62	1.7	600	H240-Kn113/H240-Hl076/L73-k0 (antibody, human IgG1, kappa, H240-Kn113: Y234E and Y235N introduced into H240-Kn072) heavy 1: QDQLVQSGAEVKKPGASVKVSCKASGFNIKDTYIQWVRQAPGQGLEWMGRIDPLRKQTKYREKFEGRVTITADTSTNTAYMELSSLRSEDTAVYYCVRSGREFDYWGQGTLVTVSSASTKGPSVFPLAPSSKSTSGGTAALGCLVKDYFPEPVTVSWNSGALTSGVHTFPAVLQSSGLYSLSSVVTVPSSSLGTQTYICNVNHKPSNTKVDKKVEPKSCDKTHTCPPCPAPEENWGPSVFLFPPKPKDTLMISRTPEVTCVVVDVSDEEPEVKFNWYVDGVEVHNAKTKPREEQYNATYRVVSVLTVLHQDWLNGKEYKCKVSNKALPAPIEKTISKAKGQPREPQVCTLPPSRDELTKNQVSLWCLVKGFYPSDIAVEWESNGQPENNYKTTPPVLDSDGSFFLYSKLTVDKSRWQQGNVFSCSVMHEALHNHYTQKSLSLSP heavy 2: QDQLVQSGAEVKKPGASVKVSCKASGFNIKDTYIQWVRQAPGQGLEWMGRIDPLRKQTKYREKFEGRVTITADTSTNTAYMELSSLRSEDTAVYYCVRSGREFDYWGQGTLVTVSSASTKGPSVFPLAPSSKSTSGGTAALGCLVKDYFPEPVTVSWNSGALTSGVHTFPAVLQSSGLYSLSSVVTVPSSSLGTQTYICNVNHKPSNTKVDKKVEPKSCDKTHTCPPCPAPELLGGPSVFLFPPKPKDTLMISRTPEVTCVVVDVSHEEPEVKFNWYVDGVEVHNAKTKPREEQYNSTYRVVSVLTVLHQDWLNGKEYKCKVSNDALPMPIEETISKAKGQPREPQVYTLPPSRCELTKNQVSLSCAVKGFYPSDIAVEWESNGQPENNYKTTPPVLDSDGSFFLVSKLTVDKSRWQQGNVFSCSVMHEALHNHYTQKSLSLSP light: DIQMTQSPSSLSASVGDRVTITCRASQDIHKYIAWYQQKPGQAPRLLIQYTSTLQPGVPSRFSGSGSGTDYTFTISSLQPEDIATYYCLQYEQLRTFGGGTKVEIKRTVAAPSVFIFPPSDEQLKSGTASVVCLLNNFYPREAKVQWKVDNALQSGNSQESVTEQDSKDSTYSLSSTLTLSKADYEKHKVYACEVTHQGLSSPVTKSFNRGEC
0.27	62	1300	0.43	1.4	130	H240-Kn115/H240-Hl076/L73-k0 (antibody, human IgG1, kappa, H240-Kn115: S239M introduced into H240-Kn072) heavy 1: QDQLVQSGAEVKKPGASVKVSCKASGFNIKDTYIQWVRQAPGQGLEWMGRIDPLRKQTKYREKFEGRVTITADTSTNTAYMELSSLRSEDTAVYYCVRSGREFDYWGQGTLVTVSSASTKGPSVFPLAPSSKSTSGGTAALGCLVKDYFPEPVTVSWNSGALTSGVHTFPAVLQSSGLYSLSSVVTVPSSSLGTQTYICNVNHKPSNTKVDKKVEPKSCDKTHTCPPCPAPEYYWGPMVFLFPPKPKDTLMISRTPEVTCVVVDVSDEEPEVKFNWYVDGVEVHNAKTKPREEQYNATYRVVSVLTVLHQDWLNGKEYKCKVSNKALPAPIEKTISKAKGQPREPQVCTLPPSRDELTKNQVSLWCLVKGFYPSDIAVEWESNGQPENNYKTTPPVLDSDGSFFLYSKLTVDKSRWQQGNVFSCSVMHEALHNHYTQKSLSLSP heavy 2: QDQLVQSGAEVKKPGASVKVSCKASGFNIKDTYIQWVRQAPGQGLEWMGRIDPLRKQTKYREKFEGRVTITADTSTNTAYMELSSLRSEDTAVYYCVRSGREFDYWGQGTLVTVSSASTKGPSVFPLAPSSKSTSGGTAALGCLVKDYFPEPVTVSWNSGALTSGVHTFPAVLQSSGLYSLSSVVTVPSSSLGTQTYICNVNHKPSNTKVDKKVEPKSCDKTHTCPPCPAPELLGGPSVFLFPPKPKDTLMISRTPEVTCVVVDVSHEEPEVKFNWYVDGVEVHNAKTKPREEQYNSTYRVVSVLTVLHQDWLNGKEYKCKVSNDALPMPIEETISKAKGQPREPQVYTLPPSRCELTKNQVSLSCAVKGFYPSDIAVEWESNGQPENNYKTTPPVLDSDGSFFLVSKLTVDKSRWQQGNVFSCSVMHEALHNHYTQKSLSLSP light: DIQMTQSPSSLSASVGDRVTITCRASQDIHKYIAWYQQKPGQAPRLLIQYTSTLQPGVPSRFSGSGSGTDYTFTISSLQPEDIATYYCLQYEQLRTFGGGTKVEIKRTVAAPSVFIFPPSDEQLKSGTASVVCLLNNFYPREAKVQWKVDNALQSGNSQESVTEQDSKDSTYSLSSTLTLSKADYEKHKVYACEVTHQGLSSPVTKSFNRGEC
0.24	190	4200	0.37	1.2	380	H240-Kn125/H240-Hl076/L73-k0 (antibody, human IgG1, kappa, H240-Kn125: Y235Q and S239M introduced into H240-Kn072) heavy 1: QDQLVQSGAEVKKPGASVKVSCKASGFNIKDTYIQWVRQAPGQGLEWMGRIDPLRKQTKYREKFEGRVTITADTSTNTAYMELSSLRSEDTAVYYCVRSGREFDYWGQGTLVTVSSASTKGPSVFPLAPSSKSTSGGTAALGCLVKDYFPEPVTVSWNSGALTSGVHTFPAVLQSSGLYSLSSVVTVPSSSLGTQTYICNVNHKPSNTKVDKKVEPKSCDKTHTCPPCPAPEYQWGPMVFLFPPKPKDTLMISRTPEVTCVVVDVSDEEPEVKFNWYVDGVEVHNAKTKPREEQYNATYRVVSVLTVLHQDWLNGKEYKCKVSNKALPAPIEKTISKAKGQPREPQVCTLPPSRDELTKNQVSLWCLVKGFYPSDIAVEWESNGQPENNYKTTPPVLDSDGSFFLYSKLTVDKSRWQQGNVFSCSVMHEALHNHYTQKSLSLSP heavy 2: QDQLVQSGAEVKKPGASVKVSCKASGFNIKDTYIQWVRQAPGQGLEWMGRIDPLRKQTKYREKFEGRVTITADTSTNTAYMELSSLRSEDTAVYYCVRSGREFDYWGQGTLVTVSSASTKGPSVFPLAPSSKSTSGGTAALGCLVKDYFPEPVTVSWNSGALTSGVHTFPAVLQSSGLYSLSSVVTVPSSSLGTQTYICNVNHKPSNTKVDKKVEPKSCDKTHTCPPCPAPELLGGPSVFLFPPKPKDTLMISRTPEVTCVVVDVSHEEPEVKFNWYVDGVEVHNAKTKPREEQYNSTYRVVSVLTVLHQDWLNGKEYKCKVSNDALPMPIEETISKAKGQPREPQVYTLPPSRCELTKNQVSLSCAVKGFYPSDIAVEWESNGQPENNYKTTPPVLDSDGSFFLVSKLTVDKSRWQQGNVFSCSVMHEALHNHYTQKSLSLSP light: DIQMTQSPSSLSASVGDRVTITCRASQDIHKYIAWYQQKPGQAPRLLIQYTSTLQPGVPSRFSGSGSGTDYTFTISSLQPEDIATYYCLQYEQLRTFGGGTKVEIKRTVAAPSVFIFPPSDEQLKSGTASVVCLLNNFYPREAKVQWKVDNALQSGNSQESVTEQDSKDSTYSLSSTLTLSKADYEKHKVYACEVTHQGLSSPVTKSFNRGEC
